Results taken from paper PMC4072508, “Genome-Wide Prediction and Validation of Peptides That Bind Human Prosurvival Bcl-2 Proteins” (PLoS Computational Biology, 2014).

T1: Mcl-1, Q07820
T1 chain: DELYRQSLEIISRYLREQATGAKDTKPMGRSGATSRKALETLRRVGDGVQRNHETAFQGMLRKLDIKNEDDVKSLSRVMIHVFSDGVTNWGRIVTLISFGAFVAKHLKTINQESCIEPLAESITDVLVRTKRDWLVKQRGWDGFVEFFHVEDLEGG


Biological target: T1, Mcl-1, Q07820
Assay: peptide SPOT array, c-Myc-tagged receptor at 1 uM or 100 nM, anti-c-Myc-Cy3

| Binder | SPOT signal as a fraction of Bim BH3's signal on the same receptor and array |
| --- | --- |
| RFNLMQVGRLLQQLAMTGSEEGDPRT [GAPVD1] | 0.04 |
| EGEEFTVTCTIKDVSSSVYSTWKREN [KIT] | 0.02 |
| ATPPAASPSALKGVSQDLLERIRAKE [CDT1] | 0.03 |
| FGDEGAVIEVLHRGSADLNARNKRRQ [MIB1] | 0.05 |
| EQWAREIGAQLRRMADDLNAQYERRR [BBC3] | 0.76 |
| VPKIASVVGILGHLASRHGDSIRREL [INTS5] | 0.05 |
| AFVGRLVSTLISKAGRELGENLDQIL [IPO9] | 0.03 |
| GADHPDVAKQLNNLALLCQNQGKFED [KLC3] | 0.01 |
| CVQSTKPSLMIQKAAIQALRKMEPKD [APOB] | 0.09 |
| LLLPKGVVLKLKPVATRFPRKAWRQK [GON4L] | 0.32 |
| YKSLLLLAYLIRNGSERVVTSAREHI [CLINT1] | 0.05 |
| CYRGQLAASVLRQISRELGPQEPTGS [FAM129C] | 0.07 |
| MAADTQVSETLKRFAGKVTTASVKER [GCN1L1] | 0.11 |
| VPSGTSLARNLKRVAETWMDEFAEYI [GALNTL6] | 0.02 |
| AYKTVEVVESIEKISTESIQTYEETA [BFSP1] | 0.01 |
| RNIASQTVARLKDVARRISSCLDFEQ [HERC2] | 0.06 |
| GKRMKQFPEVIKYLSRNVVHSVRREH [BAZ2A] | 0.29 |
| YGKVRKAASSIDQFSIRLGIFLRRYP [GOLGA5] | 0.29 |
| LGKRTSSVQALKRSARELIEGSRDDS [DST] | 0.05 |
| DLVVSELATVIKKCAEKLSSYPRLRE [DNM2] | 0.06 |
| TSMETIGAKALEDFADNIKNDPDKEY [EXOC7] | 0.01 |

Further lines, results first:

| SPOT signal as a fraction of Bim BH3's signal on the same receptor and array | Binder |
| --- | --- |
| 0.02 | EDLKENLAAGIKQIAEFLGFFLTGEQ [SULT6B1] |
| 0.01 | SGEFARICRDLSHILDAVVISCAKDG [PCNA] |
| 0.02 | EGPEVICAQILQGCAKQALEKLEEKR [NCAPD2] |
| 0.04 | NPKNKTHACYLKELGEQFVVRANHQV [NWD1] |
| 0.01 | FVQDASAASALKDVSYKIYDDENQKI [NXF2] |
| 0.02 | DPLNDNIATLLHQSSDKFVSELWKDV [MYH9] |
| 0.02 | QDKMLVAVKALKEASESARQDFQREA [NTRK1] |
| 0.11 | AEIETEYSRNLEKLAERFMAKTRSTK [SRGAP1] |
| 0.02 | GFKTTVYVSHINDLSDFYVQLIEDEA [TDRD6] |
| 0.01 | TGVNGEISYSLFQASEEIGKTFKINP [PCDHB13] |
| 0.01 | KKDKARVSELLQGLSFSGDSDVEKDN [PGBD1] |
| 0.02 | LFHLLEFCLLLNQFSRAVAAKWKDDV [RLN1] |
| 0.02 | AIVADRMVEILFHYADRALKKCPDQG [VPS8] |
| 0.01 | RDSFKHLIGGLDDVSNKAYEDAEAKA [PRKG1] |
| 0.02 | FVQVASAASALKDVSYKIYDDENQKI [NXF5] |
| 0.02 | IPGSAVCAFDLTQVAAVFEGRFREQK [SEMA6B] |
| 0.02 | TYEKPQVAEALQRAARIAISVIEFKP [RTDR1] |
| 0.02 | FVENASIAYALKNVSGKIWDEDNEKI [NXF3] |
| 0.02 | GETDANVAKFLNRLSDYLFTLARYAA [MMAB] |
